This data set can be described thus: protein stability index of a GFP-peptide fusion (yeast GPS) (PSI 1-4); higher = more stable; sorted into four equal gates, so the index is relative within each strain. In short, it runs like this:
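Plasmids isolated from each sorting gate were PCR-amplified and Illumina-sequenced, and barcodes assigned the reads to strains. The gates, four of equal size, were set by GFP/Cherry fluorescence ratio on mid-log cultures in leucine-free medium. These cultures were yeast carrying a pooled library of tiled 17-residue yeast protein peptides fused downstream of GFP on a plasmid that also expresses Cherry. The protein stability index is the sum of every gate's read frequency times its gate number.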

± gives the uncertainty stated by the source.

Turning to NRSEQNGQEQQGPVKNT [RGR1], the protein stability index by setting is: (doa10∆) 3.26 ± 0.16; (pdr5∆) 3.39 ± 0.14; (san1∆) 3.11 ± 0.11; (ubr1∆) 3.55 ± 0.22.
Consider LNHVVSLIENKKAKLVL [RPL8B], for which the protein stability index by setting is: (doa10∆) 2.46 ± 0.088; (pdr5∆) 3.54 ± 0.17; (san1∆) 2.98 ± 0.1; (ubr1∆) 2.83 ± 0.1.
For QSNEDTFLPSYMKFSNK [RRI2], the protein stability index amounted to 2.84 ± 0.063 (doa10∆), 3.05 ± 0.063 (pdr5∆), 3.17 ± 0.052 (san1∆) and 3.18 ± 0.048 (ubr1∆).
Consider FIVSGTASDQLFGMCES [PUP3], for which the protein stability index was 2.41 ± 0.046 (doa10∆), 2.46 ± 0.045 (pdr5∆), 2.63 ± 0.056 (san1∆) and 2.53 ± 0.039 (ubr1∆).
MFSPLVDSGSNDAMAGG [RPO21] displayed a protein stability index (doa10∆) of 3.3 ± 0.16 and a protein stability index (san1∆) of 3.37 ± 0.26.
On to PRRFGKGSRQCRVCSSH [RPS29B], for which the protein stability index worked out at 2.96 ± 0.061 (doa10∆), 3.06 ± 0.038 (pdr5∆), 2.97 ± 0.043 (san1∆) and 2.912 ± 0.029 (ubr1∆).
As for PKRKRRLPVSEDTNTKP [YOR098C/NUP1], the protein stability index turned out to be 3.16 ± 0.11 (doa10∆), 2.82 ± 0.13 (pdr5∆) and 2.97 ± 0.073 (ubr1∆).
On to GYRSRTRYMFQRDFRKH [RPL21A], for which the protein stability index came out at 3.16 ± 0.07 (doa10∆), 3.19 ± 0.08 (pdr5∆), 3.16 ± 0.049 (san1∆) and 3.3 ± 0.049 (ubr1∆).
Turning to TTFTKVAAKWNTSLISL [PRP8], the protein stability index (doa10∆) came to 2.09 ± 0.052, the protein stability index (pdr5∆) turned out to be 2.39 ± 0.06, the protein stability index (san1∆) was determined as 2.4 ± 0.082 and the protein stability index (ubr1∆) is 2.06 ± 0.036.
Consider KAKRAKTGSASTVKGSV [TAF14], for which the protein stability index is, setting by setting: (doa10∆) 2.9 ± 0.11; (pdr5∆) 2.66 ± 0.24; (san1∆) 2.77 ± 0.16; (ubr1∆) 3.16 ± 0.083.
With LDRPEYLKKREAGEVKD [RPL10], the protein stability index worked out at 3.27 ± 0.12 (doa10∆), 3.15 ± 0.15 (pdr5∆), 3.35 ± 0.044 (san1∆) and 3.42 ± 0.084 (ubr1∆).
For the sequence FQTPFRRRREGKTDYYQ [RPL5], the protein stability index (pdr5∆) was determined as 3.31 ± 0.12, the protein stability index (san1∆) worked out at 2.97 ± 0.12 and the protein stability index (ubr1∆) stood at 3.03 ± 0.11.
In the case of WLKEYEDETLRRIKEAE [YIL149C/MLP2], the protein stability index is 2.83 ± 0.11 (doa10∆), 3.19 ± 0.12 (pdr5∆), 3.17 ± 0.069 (san1∆) and 3.44 ± 0.11 (ubr1∆).
On the same counts, the results for CGAWEPAITIEKLKQFS [SIR3] are 1.97 ± 0.087, 1.76 ± 0.079, 2.58 ± 0.13 and 1.54 ± 0.072.
As for DNKIDIYQIHIPYAAKL [RPB2], the protein stability index reads like this: (doa10∆) 3.16 ± 0.082; (pdr5∆) 2.5 ± 0.11; (san1∆) 3.15 ± 0.092; (ubr1∆) 2.92 ± 0.063.
On to GAVIQLLKSTGLHPFEV [RPB4], for which the protein stability index reads like this: (doa10∆) 3.32 ± 0.13; (pdr5∆) 3.19 ± 0.14; (san1∆) 3.07 ± 0.2; (ubr1∆) 2.99 ± 0.084.
Regarding ELMKLDGTEYVLSSVRE [MED6], the protein stability index by setting is: (doa10∆) 3.36 ± 0.083; (pdr5∆) 3.27 ± 0.08; (san1∆) 3.16 ± 0.048; (ubr1∆) 3.15 ± 0.05.
For the sequence SHTDQPANVLLVQSLND [NNF1], the protein stability index came out at 2.07 ± 0.071 (doa10∆), 2.16 ± 0.083 (pdr5∆), 2.23 ± 0.18 (san1∆) and 2.7 ± 0.09 (ubr1∆).
Take LLICIGTSLKVAPVSEI [SIR2]: the protein stability index reads like this: (doa10∆) 1.91 ± 0.11; (pdr5∆) 2.01 ± 0.077; (san1∆) 2.29 ± 0.18; (ubr1∆) 1.79 ± 0.05.
LPKLKATGHRVLIFFQM [SNF2]: the protein stability index by setting is: (doa10∆) 1.69 ± 0.13; (pdr5∆) 1.52 ± 0.083; (san1∆) 2.09 ± 0.12; (ubr1∆) 2.09 ± 0.14.
As to YRNNEPAGFTHKLSNWL [YDL088C/ASM4], the protein stability index (doa10∆) is 2.49 ± 0.072, the protein stability index (pdr5∆) came out at 3.04 ± 0.058, the protein stability index (san1∆) was 2.7 ± 0.06 and the protein stability index (ubr1∆) is 2.82 ± 0.039.
As for SKLLVPQKNVKIQVVDR [PRE10], the protein stability index runs as follows: (doa10∆) 3.02 ± 0.074; (pdr5∆) 2.84 ± 0.049; (san1∆) 2.53 ± 0.099; (ubr1∆) 2.72 ± 0.052.
In the case of VPGMPAPIKKIIERYIK [PRP8], the protein stability index is, setting by setting: (doa10∆) 3.37 ± 0.24; (pdr5∆) 3.23 ± 0.13; (san1∆) 2.95 ± 0.11; (ubr1∆) 3.16 ± 0.13.
PVTLAKVIKVLGRTGSR [RPS28A]: the protein stability index by setting is: (doa10∆) 1.96 ± 0.083; (pdr5∆) 2.59 ± 0.077; (san1∆) 2.09 ± 0.11; (ubr1∆) 2.5 ± 0.13.
Taken in the same sequence, the figures for IEIKISDPLTVFSESCS [SNU114] were 2.33 ± 0.071, 2.55 ± 0.073, 2.42 ± 0.052 and 2.45 ± 0.06.

(Values after the supplement of paper PMC9732359.)
